The supplement of paper PMC12042874
± gives the uncertainty stated by the source.

Assay: amyloid nucleation score (Sup35N fusion, yeast selection) (log enrichment); library NNK2; higher = more nucleation; inactive = no reads after selection
Summary of the method: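 Output and input plasmid inserts were sequenced by Illumina after psi-negative yeast carrying Sup35N fused to peptides of 20 random codons had been induced 24 hours with 100 μM copper sulfate and grown 7 days at 30°C on medium lacking adenine and uracil. The nucleation score is the DiMSum log enrichment of output over input reads, centred on the mode score of non-aggregating sequences. Sequences with under 100 input reads were excluded.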

Substance | amyloid nucleation score
RMRVIISR | -0.881 ± 0.4
GAGLMALNLTHFVGGGLSTN | -0.179 ± 0.76
GSYFGHNIHLGAVWPIIGYP | 0.117 ± 0.3
AANWGNRGYMVCEHCVIDV | -0.054 ± 0.46
VNDLWRDSHNYFCTNGGNIR | inactive
TGLIGEPYGWDRSTTGF | 0.17 ± 0.43
ALLWCQMWERDRSEFPIGGF | 1.2 ± 0.45
DAWRFSTNSLHSTAYYYYFL | 5.781 ± 0.043
TFFDGSCLVRLSWAQLEFLT | -0.471 ± 0.41
ISFWYHSKTS | 0.318 ± 0.57
GTLMTCVGG | inactive
KCDYPGFWMPGQSYKDSILD | -1.61 ± 1.1
YNARFSTNLTRFGVGF | -1.15 ± 1.1
KPEVRVEMQCNYVAWYTDMI | -0.61 ± 0.37
GTVGGVGMFVLLVTRSKVFV | 1.3 ± 0.29
SGEARQH | -0.691 ± 0.49
LRIQCMMTLVWYSTPQSCNT | 5.56 ± 0.066
HVWLIGFNLFLYFITLVVWV | -0.459 ± 1.1
MFNFWWSFYALFKLSWRPGF | -0.996 ± 0.49
MCNFRSWGALLNKRAHGVGS | 0.307 ± 0.65
IGTVAPVDLTAYSRERLFRM | inactive
ITCTFFFSVSVLSTSVDSMY | 0.674 ± 0.57
AFCTVSSCFMSSSLPI | 5.3 ± 0.06

Substance | amyloid nucleation score
LSSIWVSSYHLSWLKSW | -0.048 ± 0.42
GYLFGSALKSDIQYHTESMF | inactive
YLFFKFWNAVCDLIHNTNLY | inactive
NLNDLVVLELYSRFLLNWFE | -0.282 ± 0.46
SFEWKPVFLSRLRPRIRHQV | 5.66 ± 0.066
LELHMGNLSSSTAYWLRRYS | -0.426 ± 0.48
ILLCCPVLFPINMKGSVCDK | 8.463 ± 0.044
QCGGIGFLILLNVCGDGLWI | 4.37 ± 0.092
KSVYLSIGDILAFFSIVLLY | inactive
LVSESTLINSFLQIWFWSTL | -0.324 ± 1.1
CTLVFKGLGCKSVELGGTFC | -0.564 ± 0.61
DYMNGDKSKKGDYWIMSVNS | 0.154 ± 0.65
KLVVLCFLSVIVWVNGQR | 4.67 ± 0.07
FRSMFISWVM | -0.271 ± 1
LGYLIPNDEYFILWVIVCWN | -0.024 ± 1
SWNKGIHGGSTANCWFIVIK | 0.029 ± 0.61
VVEVCC | -0.368 ± 0.27
SYTGS | -0.019 ± 0.34
YFGMISERFRFPVYFQNSPR | -1.14 ± 1.1
SEMDPPYPEISHYRYQRNHW | 0.11 ± 0.54
CRFALSMYNWVLYNRNFQLI | -0.363 ± 1.1
GSLNTLSIFDDE | -0.684 ± 0.64
FHIFQFVSLGFWSSEG | inactive

Substance | amyloid nucleation score
THWMKRRVVA | 1.33 ± 0.17
NVFLLSVREMSSFLRTTTLG | 1.24 ± 0.17
AQDWVARIRWSVRQFYGARC | 2.18 ± 0.14
YVCGRENILFFERLKS | -0.327 ± 0.45
AGWNNSMGLDE | inactive
SSGLTRFKYRRLRSIVFELG | inactive
NTGSLWG | -1.41 ± 1.1
WSCCKFLDCHITVCDFLVWA | 7.587 ± 0.047
FYEHRIIFFVLGFFNATTGS | inactive
DLEIPFLKRKG | -0.349 ± 0.6
MLRCQFTSTGFGNRLATFSD | 3.02 ± 0.15
SGPATLLPTLGYNGVIVFGN | -0.444 ± 0.78
IEMHDINYNP | -0.596 ± 0.29
SLWRNHMMQ | 0.746 ± 0.4
VRTLGGL | -0.653 ± 0.33
YCVSNWASNFSLLLYNGNMY | inactive
VCPPSDVS | inactive
AYMKYHAIRLNARFCGS | 3.53 ± 0.075
DVCMPIKKSITITTATVRVY | -0.545 ± 0.63
CDVRSPSF | -1.02 ± 0.3
SSLCGNCLGVEVVEQVISCR | -0.12 ± 0.23
TYFARCFDNWTVNWCVARVC | 0.614 ± 0.57
IRLFVRLNGHRWKRNW | -0.003 ± 0.33
